From patent publication US20220288067A1 (University of Pennsylvania, published 2022)
One block for each binder: values may come before it.

Columns and labels:
[1] = target: T1, Human Recombinant GST-MED1 protein (aa1391-1490), Q15648
T1 chain: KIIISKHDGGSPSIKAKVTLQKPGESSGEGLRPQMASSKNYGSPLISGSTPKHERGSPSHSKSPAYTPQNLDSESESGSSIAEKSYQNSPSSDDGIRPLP

[2] = target: T2, wild type MED1-peptide SPAYTPQNLD
T2 chain: SPAYTPQNLD

[3] = target: T3, mutant MED1-peptide SPAYAPQNLD
T3 chain: SPAYAPQNLD

[4] = target: T4, MED1 (endogenous, phosphorylated upon DHT stimulation) (Homo sapiens, UniProt Q15648 1-1581, phosphothreonine at T1457 and T1032 (DHT-induced)); test: reciprocal co-immunoprecipitation from LNCaP and VCaP nuclear lysates with MED1 and CDK7 antibodies (FIGS. 5c, 5d)
T4 construct: Endogenous protein immunoprecipitated with an anti-MED1 antibody (Bethyl A300-793A) from nuclear extracts; also called p-MED1; TRAP220
T4 sequence (Q15648 whole entry): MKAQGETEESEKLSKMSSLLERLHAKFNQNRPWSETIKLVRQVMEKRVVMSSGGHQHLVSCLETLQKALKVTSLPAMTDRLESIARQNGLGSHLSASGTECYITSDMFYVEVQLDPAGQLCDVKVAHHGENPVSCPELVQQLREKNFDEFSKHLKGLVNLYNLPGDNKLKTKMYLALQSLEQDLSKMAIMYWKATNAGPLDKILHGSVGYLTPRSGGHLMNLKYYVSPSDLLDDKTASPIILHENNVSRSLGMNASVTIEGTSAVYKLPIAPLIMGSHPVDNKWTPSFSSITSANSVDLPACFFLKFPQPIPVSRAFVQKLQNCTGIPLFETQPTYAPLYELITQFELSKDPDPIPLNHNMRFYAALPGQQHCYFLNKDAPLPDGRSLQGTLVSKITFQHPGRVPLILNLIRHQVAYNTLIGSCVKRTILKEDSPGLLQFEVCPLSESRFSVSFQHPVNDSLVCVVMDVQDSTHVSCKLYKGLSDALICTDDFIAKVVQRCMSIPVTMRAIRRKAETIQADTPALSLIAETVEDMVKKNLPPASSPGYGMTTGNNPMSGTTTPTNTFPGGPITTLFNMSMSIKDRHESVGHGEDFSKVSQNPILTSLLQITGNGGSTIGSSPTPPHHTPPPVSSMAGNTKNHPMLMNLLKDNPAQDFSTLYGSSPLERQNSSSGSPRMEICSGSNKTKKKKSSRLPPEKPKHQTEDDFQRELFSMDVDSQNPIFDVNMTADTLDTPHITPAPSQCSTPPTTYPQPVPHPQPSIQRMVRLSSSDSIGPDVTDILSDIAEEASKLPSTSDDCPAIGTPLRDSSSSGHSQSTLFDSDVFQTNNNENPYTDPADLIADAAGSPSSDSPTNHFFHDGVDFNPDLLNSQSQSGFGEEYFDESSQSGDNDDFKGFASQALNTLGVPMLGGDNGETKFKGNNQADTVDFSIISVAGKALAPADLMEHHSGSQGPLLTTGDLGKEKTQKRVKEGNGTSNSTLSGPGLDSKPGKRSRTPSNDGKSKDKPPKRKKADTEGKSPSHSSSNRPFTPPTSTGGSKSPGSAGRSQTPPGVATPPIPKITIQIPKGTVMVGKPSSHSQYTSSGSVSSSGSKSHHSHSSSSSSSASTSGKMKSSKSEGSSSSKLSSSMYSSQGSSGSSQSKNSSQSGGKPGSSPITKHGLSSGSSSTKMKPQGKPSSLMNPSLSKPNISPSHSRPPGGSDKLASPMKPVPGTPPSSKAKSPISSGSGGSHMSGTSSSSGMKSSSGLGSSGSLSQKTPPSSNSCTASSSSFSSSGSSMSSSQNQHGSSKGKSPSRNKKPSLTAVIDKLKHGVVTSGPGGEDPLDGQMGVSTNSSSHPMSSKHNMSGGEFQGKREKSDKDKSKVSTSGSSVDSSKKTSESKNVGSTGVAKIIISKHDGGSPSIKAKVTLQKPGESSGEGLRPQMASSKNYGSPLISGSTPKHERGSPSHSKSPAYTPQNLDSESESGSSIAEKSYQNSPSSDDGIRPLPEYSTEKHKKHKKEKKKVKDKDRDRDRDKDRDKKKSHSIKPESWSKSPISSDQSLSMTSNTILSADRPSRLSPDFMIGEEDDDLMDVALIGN

B1: CAK complex-CDK7/CyclinH/MAT1 enzyme (recombinant, BPS Bioscience) (protein)
chain 1: ALDVKSRAKRYEKLDFLGEGQFATVYKARDKNTNQIVAIKKIKLGHRSEAKDGINRTALREIKLLQELSHPNIIGLLDAFGHKSNISLVFDFMETDLEVIIKDNSLVLTPSHIKAYMLMTLQGLEYLHQHWILHRDLKPNNLLLDENGVLKLADFGLAKSFGSPNRAYTHQVVTRWYRAPELLFGARMYGVGVDMWAVGCILAELLLRVPFLPGDSDLDQLTRIFETLGTPTEEQWPDMCSLPDYVTFKSFPGIPLHHIFSAAGDDLLDLIQGLFLFNPCARITATQALKMKYFSNRPGPTPGCQLPRPNCPVETLKEQSNPALAIKRKRTEALEQGGLPKKLIF
chain 2: YHNSSQKRHWTFSSEEQLARLRADANRKFRCKAVANGKVLPNDPVFLEPHEEMTLCKYYEKRLLEFCSVFKPAMPRSVVGTACMYFKRFYLNNSVMEYHPRIIMLTCAFLACKVDEFNVSSPQFVGNLRESPLGQEKALEQILEYELLLIQQLNFHLIVHNPYRPFEGFLIDLKTRYPILENPEILRKTADDFLNRIALTDAYLLYTPSQIALTAILSSASRAGITMESYLSESLMLKENRTCLSQLLDIMKSMRNLVKKYEPPRSEEVAVLKQKLERCHSAELALNVITKKRKGYEDDDYVSKKSKHEEEEWTDDDLVESL
chain 3: DDQGCPRCKTTKYRNPSLKLMVNVCGHTLCESCVDLLFVRGAGNCPECGTPLRKSNFRVQLFEDPTVDKEVEIRKKVLKIYNKREEDFPSLREYNDFLEEVEEIVFNLTNNVDLDNTKKKMEIYQKENKDVIQKNKLKLTREQEELEEALEVERQENEQRRLFIQKEEQLQQILKRKNKQAFLDELESSDLPVALLLAQHKDRSTQLEMQLEKPKPVKPVTFSTGIKMGQHISLAPIHKLEEALYEYQPLQIETYGPHVPELEMLGRLGYLNHVRAASPQDLAGGYTSSLACHRALQDAFSGLFWQPS
in vitro kinase assay, immunoblot of the reaction mixtures [1]: we observed Threonine phosphorylation, specifically at T1457, which was completely inhibited by THZ1 | luminescence based kinase assay (ADP-Glo) [2]: CDK7-mediated phosphorylation of the T1457 wildtype peptide was inhibited by THZ1 treatment in a dose-dependent manner | luminescence based kinase assay (ADP-Glo) [3]: CDK7 exhibited no activity towards the T1457A mutant peptide

binding result [4]: binds
B2: CDK7 (endogenous) (enzyme, human, UniProt P50613 2-346, looked up)
chain: B1 chain 1
notes: Detected or immunoprecipitated with anti-CDK7 (Cell Signaling 2916s); also called cyclin-dependent-kinase 7
